According to paper PMC10707181, “Neuronal Scaffold Protein ARMS Interacts with Synaptotagmin-4 C2AB through the Ankyrin Repeat Domain with an Unexpected Mode” (International Journal of Molecular Sciences, 2023):

B1: Syt4 132–425 [human] / ARMS ankyrin repeats 1–11 (R1-11, residues 1–365) [rat] (parent)
chain 1: MSVLISQSVINYVEEENIPALKALLEKCKDVDERNECGQTPLMLAAEQGNVEIVKELLKNGANCNLEDLDNWTALISASKEGHIHIVEELLKSGASLEHRDMGGWTALMWACYKGRTDVVELLLSHGANPSVTGLYSVYPIIWAAGRGHADIVHLLLQNGAKVNCSDKYGTTPLVWAARKGHLECVKHLLAMGADVDQEGANSMTALIVAVKGGYTQSVKEILKRNPNVNLTDKDGNTALMIASKEGHIEIVQDLLDAGTYVNIPDRSGDTVLIGAVRGGHVEIVRALLQKYADIDIRGQDNKTALYWAVEKGNATMVRDILQCNPDTEICTKDGETPLIKATKMRNIEVVELLLDKGAKVSAVD
chain 2: ESVSPESLKSSTSLTSEEKQEKLGTLFFSLEYNFERKAFVVNIKEARGLPAMDEQSMTSDPYIKMTILPEKKHKVKTRVLRKTLDPAFDETFTFYGIPYTQIQELALHFTILSFDRFSRDDIIGEVLIPLSGIELSEGKMLMNREIIKRNVRKSSGRGELLISLCYQSTTNTLTVVVLKARHLPKSDVSGLSDPYVKVNLYHAKKRISKKKTHVKKCTPNAVFNELFVFDIPCEGLEDISVEFLVLDSERGSRNEVIGQLVLGAAAEGTGGEHWKEICDYPRRQIAKWHVLCDG

Variants of: B1
Test: ITC
Conditions: with ARMS ankyrin repeats 1–11 (R1-11, residues 1–365) [rat]

| ratio to parent | Variant |
| --- | --- |
| 0.8 | chain 2 K148A R149A |
| 0.3 | chain 2 K153A |
| 1.6 | chain 2 K148A R149A R152A |
| 0.3 | chain 2 R152A K153A |
| 0.3 | chain 2 Q55A |
| 0.8 | chain 2 R157A |
| 0.3 | chain 2 R152A |

Same assay, conditions: with Syt4 132–425 [human]

| ratio to parent | Variant |
| --- | --- |
| 0.9 | chain 1 K180A |
